{"source": "patent US20260209301A1", "about": "“Galanin-2 Receptor Agonists” (LIFEARC, priority 2022, published 2026)", "key": {"GALR2 [1]": {"target": "T1, GALR2 (Homo sapiens, UniProt O43603)", "T1 sequence (O43603 1-387)": "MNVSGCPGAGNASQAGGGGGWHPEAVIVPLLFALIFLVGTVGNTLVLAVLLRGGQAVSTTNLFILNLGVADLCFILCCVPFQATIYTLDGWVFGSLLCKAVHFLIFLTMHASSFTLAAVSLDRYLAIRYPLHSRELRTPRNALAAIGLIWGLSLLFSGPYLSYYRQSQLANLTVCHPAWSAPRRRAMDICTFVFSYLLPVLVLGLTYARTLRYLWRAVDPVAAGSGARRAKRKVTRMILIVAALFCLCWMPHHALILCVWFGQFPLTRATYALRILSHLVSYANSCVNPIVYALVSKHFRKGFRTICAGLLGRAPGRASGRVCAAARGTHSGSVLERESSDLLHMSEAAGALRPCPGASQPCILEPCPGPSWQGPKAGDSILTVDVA", "assay": "β-arrestin recruitment, PathHunter CHO-K1 GALR2 cells", "assay_type": "cell-based", "details": "Table 2; mean +/− standard deviation, n ≥ 3", "description": "Ligands were prepared at half log dilutions using cell plating reagent 2. 5 μl of each ligand was added to cells and plates incubated at 37° C. for 90 minutes. DiscoverX PathHunter detection kit (DiscoverX, USA) was added to cells as described my manufacturer's guidelines and plates incubated for 60 minutes at room temperature in the dark. Chemiluminescent signal was measured using the PHERAstar FS (BMG, Germany)."}, "GALR3": {"target": "T2, GALR3 (Homo sapiens, UniProt O60755)", "T2 construct": "expressed in transfected cells; host or cells: genetically modified HEK293 Gqi cells, transient", "T2 sequence (O60755 1-368)": "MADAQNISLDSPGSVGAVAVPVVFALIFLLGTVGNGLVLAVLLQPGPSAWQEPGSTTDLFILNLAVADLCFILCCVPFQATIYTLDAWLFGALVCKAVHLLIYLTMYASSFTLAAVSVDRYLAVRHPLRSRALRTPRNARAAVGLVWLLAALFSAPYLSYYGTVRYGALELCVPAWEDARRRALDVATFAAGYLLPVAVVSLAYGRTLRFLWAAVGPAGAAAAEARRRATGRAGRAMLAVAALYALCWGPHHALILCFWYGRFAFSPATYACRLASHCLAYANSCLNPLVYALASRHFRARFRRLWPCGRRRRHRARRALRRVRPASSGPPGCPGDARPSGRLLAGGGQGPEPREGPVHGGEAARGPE", "assay": "Luciferase reporter gene assay (SRE), HEK293 Gqi cells", "assay_type": "cell-based", "procedure": "GalR3 activity was measured, alongside GalR1 and GalR2, using a luciferase reporter assay. A reporter plasmid and a receptor plasmid, were transiently transfected into the target cell line. The reporter plasmid contains a serum response element (SRE) or a nuclear factor of activated T-cells response element (NFAT-RE) which is coupled to a luciferase transcript and induces expression of the luciferase upon a specific G-protein (Gai uses SRE; Gaq uses NFAT-RE) activation. The target receptor is constantly expressed after cell transfection. For GALR1 and GALR3 screening, genetically modified HEK293 Gqi cells were transiently transfected with the SRE reporter and the receptor (GALR1 and GALR3) plasmids. For GALR2 screening, HEK293 cells were transiently transfected with the NFAT-RE reporter and the receptor (GALR2) plasmid. […] The luciferase activity was analyzed with the Bright-Glo Luciferase Assay (Promega) in an EnSpire plate reader.\nTherefore, to measure activity at the GalR3 receptor a reporter gene assay was used. In this system MAP/ERK signalling is used to measure receptor activity. Activation of Gqi coupled receptors leads to downstream activation of ERK1/2. The activated ERK translocates to the nucleus where it phosphorylates and activates transcription factors, which lead to the binding of Serum response element (SRE). In this assay SRE activation induces expression of a luciferase reporter gene. […] To ensure this effect was not an artifact of the reporter gene assay, GalR1 and GalR2 reporter assays (using SRE and NFAT-RE respectively) were also run."}, "mouse GalR2": {"target": "T3, mouse GalR2 (Mus musculus, UniProt O88854)", "T3 sequence (O88854 1-371)": "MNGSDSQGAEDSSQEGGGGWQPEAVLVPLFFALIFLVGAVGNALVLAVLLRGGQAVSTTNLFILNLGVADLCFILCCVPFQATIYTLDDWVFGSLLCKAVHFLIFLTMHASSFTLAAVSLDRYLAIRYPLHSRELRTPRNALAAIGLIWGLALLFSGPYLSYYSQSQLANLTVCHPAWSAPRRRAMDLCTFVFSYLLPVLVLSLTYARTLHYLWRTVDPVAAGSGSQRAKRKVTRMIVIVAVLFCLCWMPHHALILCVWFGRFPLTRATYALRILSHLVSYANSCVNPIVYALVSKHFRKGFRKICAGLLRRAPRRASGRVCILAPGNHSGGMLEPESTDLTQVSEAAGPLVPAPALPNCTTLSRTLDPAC", "assay": "Calcium assay at orthologue receptor", "assay_type": "cell-based", "details": "Table 8; Calcium assays; mean +/− standard deviation", "text": "(§1) These species were chosen as they represent potential downstream in vivo models to be used. Within native galanin amino acid residues 1-15 are conserved across species, we would therefore expect the Gal FC fusions comprising amino acids 2 to 13 to retain GalR2 activity in these species. Calcium imaging was used to define receptor activity."}, "rat GalR2": {"target": "T4, rat GalR2 (Rattus norvegicus, UniProt O08726)", "T4 sequence (O08726 1-372)": "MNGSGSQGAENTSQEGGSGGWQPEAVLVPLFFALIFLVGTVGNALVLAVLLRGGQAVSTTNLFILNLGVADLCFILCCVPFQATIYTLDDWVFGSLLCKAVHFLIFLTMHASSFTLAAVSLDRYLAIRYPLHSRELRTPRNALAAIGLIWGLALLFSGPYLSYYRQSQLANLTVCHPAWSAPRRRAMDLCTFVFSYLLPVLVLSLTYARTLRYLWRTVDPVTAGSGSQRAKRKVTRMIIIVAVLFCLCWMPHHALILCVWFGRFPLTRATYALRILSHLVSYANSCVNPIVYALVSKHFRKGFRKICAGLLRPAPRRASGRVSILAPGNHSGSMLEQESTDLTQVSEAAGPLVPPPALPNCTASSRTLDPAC", "assay": "Calcium assay at orthologue receptor", "assay_type": "cell-based", "details": "Table 8; Calcium assays; mean +/− standard deviation", "text": "These species were chosen as they represent potential downstream in vivo models to be used. […] Calcium imaging was used to define receptor activity."}, "cynomolgus GalR2": {"target": "cynomolgus GalR2", "assay": "Calcium assay at orthologue receptor", "assay_type": "cell-based, Macaca fascicularis", "details": "Table 8; Calcium assays; mean +/− standard deviation", "text": "as §1"}, "GALR2 [2]": {"target": "T1, GALR2", "assay": "Calcium assay, CHO GalR2 cells (FLIPR)", "details": "mean +/− standard deviation", "procedure": "CHO GalR2 cells were plated at 10,000 cells per well in black clear bottom plates (corning, USA) and incubated overnight at 37° C. with 5% CO2. […] Ligands were prepared at a 5× concentration and added to cells using the FLIPR (Molecular Devices, USA). Baseline was typically 20 seconds before ligand addition. […] For analysis, fluorescence was normalised to pre-addition baseline and peak fluorescence used for all quantification.\nIn brief, a panel of functional cell-based microtiter-plate assays were developed using recombinant GalR1 and GalR2 receptors stably expressed in CHO cells. […] Nominally this equated to 10 serial (~3fold) dilutions with highest concentrations of 10-1 μM as appropriate.\nIn addition to generating both potency and efficacy estimates, the latter being expressed relative to native galanin, both G-protein and non-G-Protein signalling pathways were measured."}, "GALR2 [3]": {"target": "T1, GALR2", "assay": "Radioligand binding, [125I]galanin displacement on CHO GalR2 membranes", "parameters": "expressed in transfected cells; host or cells: CHO (Flp-In, pcDNA5/FRT)", "details": "recombinant GalR2 membranes, FIG. 3", "description": "Cell membrane homogenates (4 μg protein—from CHO cells expressing the GalR2 receptor) were incubated for 120 minutes at 22° C. with 0.05 nM [^125I] galanin in the absence or presence of test compound in a buffer containing 25 mM Tris-HCl (pH 7.4, 10 mM MgCl2 and 0.5% BSA. Non-specific binding was determined in the presence of 1 μM porcine galanin. Following incubation, samples were filtered rapidly under vacuum through glass fiber filters (GF/B, Packard) pre-soaked with 0.3% PEI and rinsed several times with ice cold 50 mM Tris-HCl using a 96 sample cell harvester (Unifilter, Packard). The filters are dried then counted for radioactivity in a scintillation counter (Topcount, Packard) using a scintillation cocktail (Microscint 0), Packard). The results are expressed as a percent inhibition of the control radioligand specific binding. The standard reference compound is porcine galanin which is tested in each experiment at several concentrations to obtain a competition curve from which its IC50 is generated.\nBriefly, cell overexpressing recombinant GalR2 were used to for crude membrane preparations. Competition style binding assays were then used to monitor displacement of [125I]-Galanin using a range of concentrations of Gal-FC fusion. After a period of incubation data were expressed relative the maximum specific Galanin bound."}, "GalR1": {"target": "T5, GalR1 (Homo sapiens, UniProt P47211)", "T5 sequence (P47211 1-349)": "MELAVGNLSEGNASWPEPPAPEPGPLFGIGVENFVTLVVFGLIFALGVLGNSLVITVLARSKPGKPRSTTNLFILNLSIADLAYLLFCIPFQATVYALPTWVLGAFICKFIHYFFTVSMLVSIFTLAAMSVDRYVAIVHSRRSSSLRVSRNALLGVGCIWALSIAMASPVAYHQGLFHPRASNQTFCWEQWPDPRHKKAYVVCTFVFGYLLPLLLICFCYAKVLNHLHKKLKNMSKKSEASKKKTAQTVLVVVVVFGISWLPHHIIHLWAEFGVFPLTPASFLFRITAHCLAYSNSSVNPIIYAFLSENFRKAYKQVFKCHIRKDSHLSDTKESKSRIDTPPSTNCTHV", "assay": "Ala scanning of Gal2-13 peptides, activity at GalR1", "assay_type": "cell-based", "details": "peptides vs Gal2-13, FIG. 5", "text": "Replacement of residues 2, 3, 5, 6, 9, 10, 11, 12 (corresponding to W, T, L, S, Y, L, L, G) led to a significant decrease in activity at GalR2 (FIG. 5). Replacement of residues 4, 8, 13 (corresponding to N, G, P) caused no decrease in activity. […] Of note, none of the substitutions increased GalR2 or GalR1 agonistic activity."}}, "note": "Marks after values point to notes of the source that are not given here."}
{"substance": "Gal2-12FC: galanin 2-12, AEAAAKEAAAKA linker, human IgG1 FC; SEQ ID NO: 25", "values": [{"measurement": "GalR2 Beta Arrestin, mean pEC50", "setting": "GALR2 [1]", "result": "7.6 +/− 0.2*"}, {"measurement": "activity at GalR3 (in words)", "setting": "GALR3", "result": "no measurable activity"}, {"measurement": "Mouse GalR2 activity", "setting": "mouse GalR2", "result": "6.8 +/− 0.1"}, {"measurement": "Rat GalR2 activity", "setting": "rat GalR2", "result": "6.6 +/− 0.4"}, {"measurement": "Cynomolgus GalR2 activity", "setting": "cynomolgus GalR2", "result": "7.7 +/− 0.4"}, {"measurement": "GalR2 Calcium, mean pEC50", "setting": "GALR2 [2]; Table 2, n ≥ 3", "result": "6.3 +/− 0.3"}, {"measurement": "GalR2 activity (calcium assay), warhead length", "setting": "GALR2 [2]; Table 6, highest concentration tested 10 μM", "result": "6.6 +/− 0.0"}, {"measurement": "pIC50, displacement of [125I]-Galanin binding", "setting": "GALR2 [3]", "result": 7.24}]}
{"substance": "Gal2-13ala8: ala scanning peptide WTLNSAAYLLGP, SEQ ID NO: 43", "values": [{"measurement": "effect of Ala substitution on GalR1 activity", "setting": "GalR1", "result": "reduced GalR1 activity"}]}
